Assay results published in publication doi:10.1101/737593 (bioRxiv, 2019).
Substitutions are numbered along the chain they refer to.

B1: hexa-histidine affinity tagged (His6)-MrpC (natural protein, Myxococcus xanthus, UniProt Q9FDC4 1-248, looked up)
chain: MHGFNRPLGPIGSNVVAPLQTTSSGMMVTANKLVPGQEAIDFKGYFKVESFPHNSTIYRPGDNTDRVYLLKSGRVRLMRIGKNSTRSVVSILRPGDLFGELFRPEGTPIEEMAIAAGEAEVWSIEGRDFRAQLEARPALAVDVVRAYAERVRALRKRVLGLTFKEVPARLADTLLTLVEAHGERCPHGGETDLRGITQQDLADLVGASRSFVSTLINEMKREGVLGNVGRILCVRDQKALRKIAGKEK
B2: His6-MrpC lacking the 25 amino terminal residues (His6-MrpC_(ΔN25)) (domain or fragment, Myxococcus xanthus, UniProt Q9FDC4 26-248, looked up)
chain: MMVTANKLVPGQEAIDFKGYFKVESFPHNSTIYRPGDNTDRVYLLKSGRVRLMRIGKNSTRSVVSILRPGDLFGELFRPEGTPIEEMAIAAGEAEVWSIEGRDFRAQLEARPALAVDVVRAYAERVRALRKRVLGLTFKEVPARLADTLLTLVEAHGERCPHGGETDLRGITQQDLADLVGASRSFVSTLINEMKREGVLGNVGRILCVRDQKALRKIAGKEK
B3: His6-MrpC_(AAAA) (natural protein, Myxococcus xanthus, UniProt Q9FDC4 1-248, looked up)
chain: B1 chain with T21A, T22A, S23A, S24A

Target: the molecule itself
Experiment: SEC

Stoichiometry N, 2:
B1
B2
B3
